Results: US20100216659A1

Columns and labels:
[1] = biological target: monomeric gp120 (HIV-1) (HIV-1); experiment: yeast display flow cytometry, gp120 titrated in the absence of sCD4, MFI of antigen binding
[2] = biological target: gp120 pre-complexed with sCD4 (HIV-1); experiment: yeast display flow cytometry, gp120 titrated in the presence of sCD4, MFI of antigen binding

## scFv X5 displayed on yeast (X5-pPNLS in EBY100)
[1]
  Kd: 14.5 nM
[2]
  Kd: 1.1 nM
